Test results: article PMC9951844 (2023)

How the values were obtained:
[1] = biological target: T1, SARS-CoV-2 wildtype RBD (SARS-CoV-2, UniProt P0DTC2 332-527); experiment: BLI
[2] = biological target: T1, SARS-CoV-2 wildtype RBD; experiment: BLI; remark: listed apart in the source

Binder | koff [1] [s⁻¹] | Kd [2] [nM]
YB13-292 IgG (antibody, V domains shown) VH: EVQLVESGGGLVKPGGSLRLSCAASGFSFITYNMNWVRQAPGKGLEWVSSISSNILSSTSYIYYADSVKGRFTISRDDAANSLFLQMNSLRVEDTAQYYCARTRSRSVRNCTSATCPVDAFDLWGQGTMVIVSS VL: DIVLTQSPLSLPVTPGEPASISCRSSQSLLRSNGYNYLDWYLQKPGQSPHLLIYLGSNRASGVPDRFSGSGSGTDFTLKISRVEAEDVGVYYCMQALQTPYTFGQGTNLEIK | 0.000197 | 0.39
YB9-258 IgG (antibody, V domains shown) VH: EVQLVESGGGLIQPGGSLRLSCAASGLTVSSNYMHWVRQAPGKGLEWVSVLYAGGSAFYADSVKGRFTISRNNSKNTLYLQMNSLRAEDTAIYYCARGLGDYLDSWGQGTLVTVSS VL: DIQMTQSPSSVSASVGDRVTITCRASQGIGSWLAWYQQKPGKAPQLLIYAASTLQSGVPPRFSGSGSGTDFTLTITSLQPEDFASYYCQQANSVLALTFGGGTKVEIK | 7.7e-05 | 0.63
